Assay results from patent publication EP4559937A1 (Universitat de Barcelona, dated 2025).
One block for each binder: values may come before it.

Biological target: T1, Recombinant CD7 protein (ACRO biosystems, Cat No CD-H52H7), labeled with Alexa Fluor 647 (UniProt P09564 26-180, limits assumed, Alexa Fluor 647 NHS Ester label, sites not stated)
T1 construct: Bought protein; also called fluorescently labelled CD7; Alexa Fluor 647-labeled CD7
T1 sequence (looked up): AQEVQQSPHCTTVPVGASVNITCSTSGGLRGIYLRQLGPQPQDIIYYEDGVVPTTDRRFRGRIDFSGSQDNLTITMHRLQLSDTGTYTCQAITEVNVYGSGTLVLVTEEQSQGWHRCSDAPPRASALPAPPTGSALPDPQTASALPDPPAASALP
Experiment: microfluidic antibody-affinity profiling (MAAP), Fluidity One-W, hybridoma supernatant with Alexa Fluor 647-labelled CD7, Bayesian inference

- Kd: 13.6 nM
B1: 124.1D1 murine anti-CD7 mAb (antibody, V domains shown)
VH: DVQLQESGPGLVKPSQSLSLTCTVTGYSITSDYAWNWIRQFPGNKLEWLGYISYSGSTSYNPSLKSRISITRDTSKNQFFLQLNSVTTEDTATYYCAKSQLGRWAMDYWGQGTSVTVSS
VL: DILLTQSPAILSVSPGERVSFSCRASQSIGTSIHWYQQRTNDSPRLLIKYASESISGIPSRFSGSGSGTDFTLNINSVESEDIADYYCQQSISWPLTFGPGTKLELK
notes: Murine monoclonal antibody, tested as hybridoma culture supernatant; also called CD7_124.1D1

- Kd: 22.4 nM
B2: 142.24 murine anti-CD7 mAb (antibody, V domains shown)
VH: QLVQSGPEVKKPGETVKISCKASGYSFTHYGVNWVKQAPGKGLKWMGWINTNTGKPTYAEDFKGRFAFSLETSARTAYLQINNLKNEDTATYFCARWSTTVVAPYFDVWGAGTTVTVSS
VL: DILLTQSPAILSVSPGERVSFSCRASQNIGTSIHWFQQRSNGSPSLLIKYASESMSGIPSRFSGSGSGTDFTLSINSVEPEDIADYYCQQSNRWPYTFGGGTKLEIK
notes: Murine monoclonal antibody, tested as hybridoma culture supernatant; also called CD7_142.24

- Kd: 52.4 nM
B3: 142.9 murine anti-CD7 mAb (antibody, V domains shown)
VH: QVQLQQSGAELVRPGTSVKISCKASGYTFTNYWLGWVKQRPGHGLEWIGDFYPGSIYTNYNENFQGKATLTADTSSSTAYMQLSSLTSEDSAVYFCAREGDYYGSGHFDYWGQGTTLTVSS
VL: EILLTQSPAIIAASPGEKVTITCSARSSVSYMNWYQQKSGSSPKIWIYGISNLASGVPARFSGSGSGTSFSFTINSMEAEDVAYYYCQLRSSYSRTFGGGTKLEIK
notes: Murine monoclonal antibody, tested as hybridoma culture supernatant; also called CD7_142.9
